Assay results reported in article PMC7300195 (2020).

Columns and labels:
Experiment in all cases: BLI
[1] = molecular target: NiV G trimer: NiV G head domain residues 172-602 coupled to an N-terminal foldon domain ( | Nipah virus (Malaysia), UniProt Q9IH62 172-602)
Stalk G = molecular target: Stalk G
[2] = molecular target: hexameric NiV G: two G ectodomain headgroups linked by a foldon trimerization domain via short glycine linkers (Nipah virus (Malaysia) | )
[3] = molecular target: NiV G ferritin 24-mer nanoparticle: NiV G ectodomain residues 172-602 linked to the C-terminus of fe (Nipah virus (Malaysia), UniProt Q9IH62 172-602)
Mono G = molecular target: Mono G

B1: m102.4 monoclonal antibody (HeV G-specific antibody), human IgG1/kappa (antibody, V domains shown)
VH: EVQVIQSGADVKKPGSSVKVSCKSSGGTFSKYAINWVRQAPGQGLEWMGGIIPILGIANYAQKFQGRVTITTDESTSTAYMELSSLRSEDTAVYYCARGWGREQLAPHPSQYYYYYYGMDVWGQGTTVTVSS
VL: EIVMTQSPGTLSLAPGERATLSCWASQSVRNNYLAWYQQKPGQAPRLVIYNGSTRATGIPDRFSGSGSGTDFTLTISRLDPEDFAVYYCQQYGNSRRVTFGGGTKVEIK
B1 showed a Kd [1] of 153 nM, a koff [1] of 0.0857 s⁻¹ and a Kd (Stalk G) of 112 nM. For the same binder, the koff (Stalk G) was 0.0849 s⁻¹, the Kd [2] was 86.2 nM and the koff [2] was 0.0596 s⁻¹. For the same binder, the Kd [3] was 17.8 nM, the koff [3] was 0.0279 s⁻¹ and the Kd (Mono G) was 402 nM. It also gave a koff (Mono G) of 0.131 s⁻¹.
